Each block holds one molecule with its values, some of them ahead of it.
How the values were obtained:
[1] = target: endogenous IL-22 receptor on AsPC-1 cells (UniProt Q8N6P7); test: cell-based or functional assay
[2] = target: T1, mIL22RA1-Fc fusion protein (mouse, UniProt Q80XZ4 16-230, limits assumed); test: BLI (Octet RED96); mIL22RA1-Fc captured on AHC biosensor, fusion protein in solution at 400 nM, global fit
T1 construct: also called mouse IL-22Ra 1; IL-22Rα-1; not shown: Fc part
T1 sequence (looked up): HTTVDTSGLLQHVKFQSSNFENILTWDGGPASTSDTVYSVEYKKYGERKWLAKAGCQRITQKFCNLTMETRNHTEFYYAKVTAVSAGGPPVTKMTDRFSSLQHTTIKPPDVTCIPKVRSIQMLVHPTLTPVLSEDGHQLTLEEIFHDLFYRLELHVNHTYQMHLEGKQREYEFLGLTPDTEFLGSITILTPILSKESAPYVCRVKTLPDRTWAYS
Description: OCTET® RED96 was used to characterize the interactions of an IL-22 fusion protein with a mouse IL-22Ra 1 (mIL22RA1). Briefly, an mIL22RA1-Fc fusion protein was loaded onto an anti-human IgG Fc capture (AHC) biosensor. The biosensor was then dipped into a solution containing the IL-22 fusion protein at 400 nM. Primary experimental data was analyzed with global fitting to determine a dissociation constant (Kd).

[3] = target: T2, endogenous IL-22 receptor on AsPC-1 cells (UniProt Q8N6P7 16-574, limits assumed); test: cell-based or functional assay
T2 sequence (looked up): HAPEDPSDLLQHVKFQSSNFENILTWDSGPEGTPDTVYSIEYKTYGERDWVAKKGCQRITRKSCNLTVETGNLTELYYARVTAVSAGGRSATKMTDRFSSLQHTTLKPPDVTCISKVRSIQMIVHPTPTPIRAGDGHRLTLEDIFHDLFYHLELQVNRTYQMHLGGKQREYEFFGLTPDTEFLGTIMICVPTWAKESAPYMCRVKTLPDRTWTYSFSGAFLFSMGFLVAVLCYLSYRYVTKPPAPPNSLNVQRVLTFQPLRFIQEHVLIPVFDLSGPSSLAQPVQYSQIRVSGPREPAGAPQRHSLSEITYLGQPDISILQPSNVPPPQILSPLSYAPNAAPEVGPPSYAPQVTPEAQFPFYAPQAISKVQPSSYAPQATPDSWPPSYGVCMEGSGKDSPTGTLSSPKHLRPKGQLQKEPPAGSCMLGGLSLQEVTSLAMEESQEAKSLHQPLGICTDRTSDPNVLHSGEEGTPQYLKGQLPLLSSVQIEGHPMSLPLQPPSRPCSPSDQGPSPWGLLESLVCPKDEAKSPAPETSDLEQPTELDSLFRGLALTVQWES

Molecule: recombinant human IL-22 (from UniProt Q9GZX6 34-179) (ligand)
EC50 of STAT3 phosphorylation (phospho-STAT3 Tyr705 HTRF) in AsPC-1 cells [1]: 0.09 µM

B2: mIL-22-anti-HSA A2 (other)
chain: LPVNTRCKLEVSNFQQPYIVNRTFMLAKEASLADNNTDVRLIGEKLFRGVSAKDQCYLMKQVLNFTLEDVLLPQSDRFQPYMQEVVPFLTKLSNQLSSCHISGDDQNIQKNVRRLKETVKKLGESGEIKAIGELDLLFMSLRNACVSGGGGSGGGGSGGGGSEVQLVESGGGLVQPGGSLRLSCAASGSTWSINTLAWYRQAPGKQRDLVARISSGGSTYYADSVKGRFTISRDNSKNTLYLQMNSLRAEDTAVYYCYAQSTWYPPSWGQGTLVTVSS
notes: Single-chain fusion, expressed in ExpiCHO cells; also called fusion protein A2
Kd [2]: 61 nM
EC50 of STAT3 phosphorylation (phospho-STAT3 Tyr705 HTRF) in AsPC-1 cells [3]: 0.7 µM

B3: mIL-22-anti-HSA A4 (other)
chain: LPVNTRCKLEVSNFQQPYIVNRTFMLAKEASLADNNTDVRLIGEKLFRGVSAKDQCYLMKQVLNFTLEDVLLPQSDRFQPYMQEVVPFLTKLSNQLSSCHISGDDQNIQKNVRRLKETVKKLGESGEIKAIGELDLLFMSLRNACVSGGGGSGGGGSGGGGSQVQLVESGGGVVQPGGSLRLSCAASGFAFRGFGMSWVRQAPGKGLEWVSSINNGGSDTYYADSVKGRFTISRDNSKNTLYLQMNSLRAEDTAVYYCAIGGPGASPSGQGTQVTVSS
notes: Single-chain fusion, expressed in ExpiCHO cells
Kd [2]: 67 nM
EC50 of STAT3 phosphorylation (phospho-STAT3 Tyr705 HTRF) in AsPC-1 cells [3]: 0.6 µM

B5: hIL-22-anti-HSA A1 (other)
chain: APISSHCRLDKSNFQQPYITNRTFMLAKEASLADNNTDVRLIGEKLFHGVSMSERCYLMKQVLNFTLEEVLFPQSDRFQPYMQEVVPFLARLSNRLSTCHIEGDDLHIQRNVQKLKDTVKKLGESGEIKAIGELDLLFMSLRNACISGGGGSGGGGSGGGGSEVQLVESGGGLVQPGGSLRLSCAASGSTWSINTLAWYRQAPGKQRDLVARISSGGSTYYADSVKGRFTISRDNSKNTLYLQMNSLRAEDTAVYYCYAQSTWYPPSWGQGTLVTVSS
notes: Single-chain fusion of IL-22 and an anti-HSA VHH, expressed in ExpiCHO cells; also called fusion protein A1
Kd [2]: 300 nM
EC50 of STAT3 phosphorylation (phospho-STAT3 Tyr705 HTRF) in AsPC-1 cells [3]: 0.8 µM

The next lines start with the values.

Kd [2]: 30 nM
EC50 of STAT3 phosphorylation (phospho-STAT3 Tyr705 HTRF) in AsPC-1 cells [3]: 0.5 µM
B1: Anti-HSA-mIL-22 A3 (other)
chain: QVQLVESGGGVVQPGGSLRLSCAASGFAFRGFGMSWVRQAPGKGLEWVSSINNGGSDTYYADSVKGRFTISRDNSKNTLYLQMNSLRAEDTAVYYCAIGGPGASPSGQGTQVTVSSGGGSGGGSGGGSGGGSLPVNTRCKLEVSNFQQPYIVNRTFMLAKEASLADNNTDVRLIGEKLFRGVSAKDQCYLMKQVLNFTLEDVLLPQSDRFQPYMQEVVPFLTKLSNQLSSCHISGDDQNIQKNVRRLKETVKKLGESGEIKAIGELDLLFMSLRNACV
notes: as for B3

Kd [2]: 1.4 nM
B4: mIL-22-hIgG1 Fc B1 (Fc fusion)
chain: LPVNTRCKLEVSNFQQPYIVNRTFMLAKEASLADNNTDVRLIGEKLFRGVSAKDQCYLMKQVLNFTLEDVLLPQSDRFQPYMQEVVPFLTKLSNQLSSCHISGDDQNIQKNVRRLKETVKKLGESGEIKAIGELDLLFMSLRNACVARGPTIKPCPPCKCPAPNLLGGPSVFIFPPKIKDVLMISLSPIVTCVVVDVSEDDPDVQISWFVNNVEVHTAQTQTHREDYNSTLRVVSALPIQHQDWMSGKEFKCKVNNKDLPAPIERTISKPKGSVRAPQVYVLPPPEEEMTKKQVTLTCMVTDFMPEDIYVEWTNNGKTELNYKNTEPVLDSDGSYFMYSKLRVEKKNWVERNSYSCSVVHEGLHNHHTTKSFSRTPGK

Kd [2]: 0.77 nM
EC50 of STAT3 phosphorylation (phospho-STAT3 Tyr705 HTRF) in AsPC-1 cells [3]: 0.5 µM
B6: mIL-22-anti-HSA-mIL-22 A9 (other)
chain: LPVNTRCKLEVSNFQQPYIVNRTFMLAKEASLADNNTDVRLIGEKLFRGVSAKDQCYLMKQVLNFTLEDVLLPQSDRFQPYMQEVVPFLTKLSNQLSSCHISGDDQNIQKNVRRLKETVKKLGESGEIKAIGELDLLFMSLRNACVSGGGGSGGGGSGGGGSQVQLVESGGGVVQPGGSLRLSCAASGFAFRGFGMSWVRQAPGKGLEWVSSINNGGSDTYYADSVKGRFTISRDNSKNTLYLQMNSLRAEDTAVYYCAIGGPGASPSGQGTQVTVSSGGGSGGGSGGGSGGGSLPVNTRCKLEVSNFQQPYIVNRTFMLAKEASLADNNTDVRLIGEKLFRGVSAKDQCYLMKQVLNFTLEDVLLPQSDRFQPYMQEVVPFLTKLSNQLSSCHISGDDQNIQKNVRRLKETVKKLGESGEIKAIGELDLLFMSLRNACV
notes: Single-chain fusion with two IL-22 domains, expressed in ExpiCHO cells

Kd [2]: 1.2 nM
EC50 of STAT3 phosphorylation (phospho-STAT3 Tyr705 HTRF) in AsPC-1 cells [3]: 0.5 µM
B7: mIL-22-anti-HSA-mIL-22 A8 (other)
chain: LPVNTRCKLEVSNFQQPYIVNRTFMLAKEASLADNNTDVRLIGEKLFRGVSAKDQCYLMKQVLNFTLEDVLLPQSDRFQPYMQEVVPFLTKLSNQLSSCHISGDDQNIQKNVRRLKETVKKLGESGEIKAIGELDLLFMSLRNACVSGGGGSGGGGSGGGGSEVQLVESGGGLVQPGGSLRLSCAASGSTWSINTLAWYRQAPGKQRDLVARISSGGSTYYADSVKGRFTISRDNSKNTLYLQMNSLRAEDTAVYYCYAQSTWYPPSWGQGTLVTVSSGGGSGGGSGGGSGGGSLPVNTRCKLEVSNFQQPYIVNRTFMLAKEASLADNNTDVRLIGEKLFRGVSAKDQCYLMKQVLNFTLEDVLLPQSDRFQPYMQEVVPFLTKLSNQLSSCHISGDDQNIQKNVRRLKETVKKLGESGEIKAIGELDLLFMSLRNACV
notes: Single-chain fusion with two IL-22 domains, expressed in ExpiCHO cells; also called fusion protein A8
